{"source": "the DeepSol protein solubility set"}
{"experiment": "soluble on expression in E. coli; label from the status in PepcDB or PDB records"}
{"sequence": "MKVLKCGVMLLSILFVSQLHVYAEENRWTWPVEGQISDYFGTRHGKHYGIDVAAPIGTPVVAIQDGKVTRSYYSSSYGNVVFIKHGEYEAVYAHLNKRYVNQGDYISKGEKIGEVGNTGESRGAHLHLELHQGRWTMAKKNAMNPLLVLSEQRNEVVSSSLYVVQKGDTLVSIARKFSMTLKEIKEKNGLQQELIYPNQQLYVK", "soluble on expression in E. coli": "not soluble"}
{"sequence": "MGSDKIHHHHHHMEKEMLTFDITNDFIVGDRITKETLNKYSKLPHKIKAGLFLLCVEGSVQASINLAKYTINKYDFVTLVPSNFIQFHEISDDARFYFAGFSSEFMTNINFIKSTMSFLPVITEHPIMPLEESVAQLYIDGYRLLIRAQSLSPSYSMVNKNLVIAYLTIFMQGTAELYKNHSHWTNGIRTRTNEIYRKFIQLVVEHYTTEHSVSFYAAQLNLSLPHFCTTIKKAIGLTPLEIISSIITMDAKAQLRSTDLTVKEIAFSLGFNNLSFFNKYFRQHTGMTPQEYRRMKIPSST", "soluble on expression in E. coli": "not soluble"}
{"sequence": "MVSNSSITFKEFVDYWFEAYASTAVKPSTQKRYRQLLKPALRAIGNKPLNKVKPLDIQNIYIALAGTQSNCTILKLHRLLHEIFKHAQMWEYISDNPVKKVVPPTPEKKVFDLEHHHHHH", "soluble on expression in E. coli": "not soluble"}
{"sequence": "MGSDKIHHHHHHMTDKLSPRGRPLYLGSRGRHTRFSRIADSVADSFNLSKELTTATLLAAVNSALRGKASITINQDWDEPVNAFFLVCAESGGGKSPSNNFFKQPQLNFQTEWNEQNKNLYLRASVDKKYFAQKLKKHTQQAAELDYGNPKALEQYHAETTRLTEAYEKALRCQPLELFVDDVTNKSLIEAMSRQDGRIAIMEPEVSAFRHIVRAKEVSPILDTILKSFSGERIQLNRAGEPALTIERPILALNIMVQPPIMMQLAKNKAIQGRGILGRFFVTIVEKPRYSRFRHDPIEVPPEVRFEYQDTIYKILTTVEKSKDLLSFSLSDEATEAWLAVKDDVESSIPHNPPPGYGEWKAKAGKHLLHLACLVHIFEHQASNTIIDKRSFELAELLFNFFDKNMWSMLRFMYPEIDFLVAVKALSSGKLYNMGEFSARDMQRALGTYNSTQIAQGIDWLLDNRAIDPIEHRHIENSAKTTMHVGRKKSPTYKIIDAEWHYLRDELL", "soluble on expression in E. coli": "not soluble"}
{"sequence": "MRNKNMSTIYQTSATASAGRNGVVSTEDKLLELNLSYPKEMGGSGTATNPEQLFAVGYAACFSNAILHVAREAKVALKEAPVTATVGIGPNGQGGFALSVALAAHIALEDEQARQLVTVAHQVCPYSNAVRGNIDVQVSVNGLAL", "soluble on expression in E. coli": "not soluble"}
{"sequence": "MIGYVLNGEHEEIPYGELMALLEIFNYNGSVERLKRYVITEDSPAKDIVKRSGYIDEGHRIIFRYNLEEKSVDLVDKIVNDFINSFKDFVANIDYPDIDESKSYAVRVLKLHKDEFTKSIDSLRIEKEIGGIIKLKTNAKVNLTKPDILVRVVILENTFFISNVLEMRDREYFQKNRPHLRKYFHPGCMLPKLARAMVNLARVKEGDIVLDPFCGTGGFLIEAGLIGAKLIGCDIDWRMASGTLINLEEYNLLDKVIKVKRLDAKYVKEFLNELNIEKVDAIVTDPPYGISTAKKGEIEKILETLPEVIKDNGYFVFAYPKKIELDMELEGLYKVYIHKGLIRHIHVYKKI", "soluble on expression in E. coli": "soluble"}
{"sequence": "MGSSHHHHHHSSGRENKYFQGHMRNVALITGITGQDGSYLAEFLLEKGYEVHGIVRRSSSFNTGRIEHLYKNPQAHIEGNMKLHYGDLTDSTCLVKIINEVKPTEIYNLGAQSHVKISFDLAEYTADVDGVGTLRLLDAVKTCGLINSVKFYQASTSELYGKVQEIPQKETTPFYPRSPYGAAKLYAYWIVVNFREAYNLFAVNGILFNHESPRRGANFVTRKISRSVAKIYLGQLECFSLGNLDAKRDWGHAKDYVEAMWLMLQNDEPEDFVIATGEVHSVREFVEKSFLHIGKTIVWEGKNENEVGRCKETGKVHVTVDLKYYRPTEVDFLQGDCTKAKQKLNWKPRVAFDELVREMVHADVELMRTNPNAGS", "soluble on expression in E. coli": "soluble"}
{"sequence": "MALTEQKRVRLEKLSDENGIISALAFDQRGALKRLMVKHQTEEPTVAQMEELKVLVADELTKYASSMLLDPEYGLPATKALDEKAGLLLAYEKTGYDTTSTKRLPDCLDVWSAKRIKEEGADAVKFLLYYDVDSSDELNQEKQAYIERIGSECVAEDIPFFLEILAYDEKIADAGSVEYAKVKPHKVIGAMKVFSDPRFNIDVLKVEVPVNIKYVEGFAEGEVVYTREEAAAFFKAQDEATNLPYIYLSAGVSAKLFQDTLVFAHESGANFNGVLCGRATWAGSVEAYIKDGEAAARECVRTTGFENIDELNKVLQRTATSWKERV", "soluble on expression in E. coli": "soluble"}
{"sequence": "MGSDKIHHHHHHMQFLYNKQAGEEFIQLQGENFNHLKVRRVKENSELNLRNLQDNFLYNYTITNLTRNSCTLKFLNKKSQNIKQSELNLALAIIDIKILEKTLPFLNELGVKKLHLVFTNFSQRNFKIDLERFEKIIISSCEQCGRNTKMDLIIHQSTQEFVQKFPNAIMVDFQGEQQSHFDEKELYFIGPEGGFNNDERLLFNRKISLKSSNILKSQTAIIAIASKILL", "soluble on expression in E. coli": "not soluble"}
{"sequence": "MGSSHHHHHHSSGRENLYFQGPSNSDAAHAFWSTQPVPQTEDEDEKIVFAGPMDEPKTVADIPEEPYPIASTFEWWTPNMEAADDIHAIYELLRDNYVEDDDSMFRFNYSEEFLQWALCPPNYIPDWHVAVRRKADKKLLAFIAGVPVTLRMGTPKYMKVKAQEKGEGEEAAKYDEPRHICEINFLCVHKQLREKRLAPILIKEATRRVNRTNVWQAVYTAGVLLPTPYASGQYFHRSLNPEKLVEIRFSGIPAQYQKFQNPMAMLKRNYQLPSAPKNSGLREMKPSDVPQVRRILMNYLDSFDVGPVFSDAEISHYLLPRDGVVFTYVVENDKKVTDFFSFYRIPSTVIGNSNYNLLNAAYVHYYAATSIPLHQLILDLLIVAHSRGFDVCNMVEILDNRSFVEQLKFGAGDGHLRYYFYNWAYPKIKPSQVALVML", "soluble on expression in E. coli": "soluble"}
{"sequence": "MSLDWFTVDDSVLRVALVFPLQGSAGIFGPTCELCARLAAEEVNRAGGVLGKELRLLPVDGGAPPREIADRVAALVDLGVVQGVTGWHISSVRQALAPRIAHRVPYVYTALYEGGEHTAGVFLTSETPRDQLRPAMRLLARERGVRRWFVIGNDYVWPRRTARAAHSYARECGGSIGGEVYLPLGTHDFEPVLRRIERSDADAVLMLLVGSDAVRFNRAFAAAGLDGRCLRLSTLMDENMLLASGPAATADLYSTAGFFASLANQDTLDFHGRYAARYGVEAPALGSLGESCYEGVLLLAALIGRAGTLEVSAIGAAADTVSYEGPRGLLRLRGGHVRQRIYLARADGLDFDVVAELDLHSSRPEGHHHHHH", "soluble on expression in E. coli": "not soluble"}
{"sequence": "MAIKSVLFLRSNPVAPDPRVAKEAQALADAGYKVGVVAWDRTGELPKVEETPFGLVERLPIKGSFRSGLANLLPLVRFNLALLWHLIKRRSTYDAIHACDFDTVLPALVAAKLLGKKVVYDVFDFYADMLRATPGWIKSIIKKVDLRLMGWVDAVILADESRVKQIQGARPKRLTFIYNSPPIEDPFPLPPAPPPLRIAYVGLLQKERGILQVIELLRRHPEWELDLGGFGGDEEEIRRAVADLPNVRYHGRVPYEKALELMSNAHLLFATYDPSIPNHRYSSANKLFEAMAIGRPIVVARDTGMDQLVQQYALGFVVEYGNLAALEDAFARVASWDLQRFEEFSQKAQEVYVTRFAWRIMKERLIALYRKLEE", "soluble on expression in E. coli": "soluble"}
{"sequence": "MGTYVEPSKLSYGEYLESWFNTKRHSVGIQTAKVLKGYLNSRIIPSLGNIKLAKLTSLHMQNYVNSLRDEGLKRGTIEKIIKVIRNSLEHAIDLELITKNVAAKTKLPKADKEELEHHHHHH", "soluble on expression in E. coli": "not soluble"}
{"sequence": "HMVTLYTSPSSTSCRKARAWLEEHEIPFVERNIFSEPLSIDEIKQILRMTEDGTDEIISTRSKVFQKLNVNVESMPLQDLYRLINEHPGLLRRPIIIDEKRLQVGYNEDEIRRFLPRKVRSFQLREAQRLAN", "soluble on expression in E. coli": "soluble"}
{"sequence": "MSNKFHCDVCSADCTNRVRVSCAICPEYDLCVPCFSQGSYTGKHRPYHDYRIIETNSYPILCPDWGADEELQLIKGAQTLGLGNWQDIADHIGSRGKEEVKEHYLKYYLESKYYPIPDITQNIHVPQDEFLEQRRHRIESFRERPLEPPRKPMASVPSCHEVQGFMPGRLEFETEFENEAEGPVKDMVFEPDDQPLDIELKFAILDIYNSRLTTRAEKKRLLFENHLMDYRKLQAIDKKRSKEAKELYNRIKPFARVMTAQDFEEFSKDILEELHCRARIQQLQEWRSNGLTTLEAGLKYERDKQARISSFEKFGASTAASLSEGNSRYRSNSAHRSNAEYSQNYSENGGRKKNMTISDIQHAPDYALLSNDEQQLCIQLKILPKPYLVLKEVMFRELLKTGGNLSKSACRELLNIDPIKANRIYDFFQSQNWM", "soluble on expression in E. coli": "soluble"}
{"sequence": "MSLTEILIVEDDDIIATLIERFLLQREYVVCAKVATGEDALYKAAEHLPDLVLMDINLAGKIDGITATKFITAIFHIPVIFLSGQDDETTLERATMAEPASFIIKPFNAKDLYSNIEIALHNDREGHHHHHH", "soluble on expression in E. coli": "not soluble"}
{"sequence": "MGSDKIHHHHHHMLQTDNLIPDFINKQITQAVMSLRSGNVVAFPTETVYGLGADISQPQAIQKIFEIKGRPSSHPLIVHFANLSELEFWAENIPATAWILAQHFWPGPLTLILTKSNHIPLSVTGGQETVGLRIPRHPIALKLLEQLGSCKALAAPSANRFGFVSPTIADHVKNAFNDKIEVILDGGPCEVGLESTIVSCIDKDVTILRPGGISVLSIENLLQQKVSVKSQNKIRTPGSLSSHYATATPLEICQSSESLFSRSFDLLQQGIRTAVIIRSIHLIPMLNSDDKFHYILMPNDPVAFGKDLYATLRKLDDANFERILVEAPPDDLEWLAVADRLSRASYSFTSK", "soluble on expression in E. coli": "not soluble"}
{"sequence": "MGLSTSNKPLSERIEESKKDVFMQKAVAKAQDAQWEKREGAREALGNWPQWRELGEQIRQHTIQYLPDYLEEFSDNVAKRGGKVFFAQTAEEANEYVKQVVLEKKAKKIVKSKSMVTTEVDIDPMLLGLDDVSVMETDLAEFILQMDDWDEPSHIVFPSIHKNREQIRQVFAKKLGYQGDNDPVNLARCAREVMRKFFLEAEIGITGCNFAIADSGLINLNTNEGNADLTISIPKTQIVLMGMERIVPTMREAEVLDNLLARSAVGQNLTTYVTFAGQKNADESDGPEEFHVVILDNGRSKALGTAFQPVLQCIRCGSCLNVCPVYRHIGGHGYGSIYPGPIGAVLSPILGGYKQFGELPYASSLCGACTETCPVKIPLHELLIEHRKVMTDDLKMKHGFEDFQMRMVGKATGSPAMFKAAMKVDHAAAGILSKQKDITVENMYNHGGYLDKGPGLVKGWTDVRDLPRPPKSSENFRSWFKKHQEGEKND", "soluble on expression in E. coli": "not soluble"}
{"sequence": "NTAPSLTVPECAICLQTCVHPVSLPCKHVFCYLCVKGASWLGKRCALCRQEIPEDFLD", "soluble on expression in E. coli": "soluble"}
{"sequence": "ARIGLYEKALPQNLTWAERLTWAKKLGFDFLEMSIDESDERLARLAWTPSQLQEFSQLMVKEDFFIHSLCLSGHRRFPLGSLNKETREKGRKILSQAIRLAHQLNIRVIQIAGYDVFYEEKTAETREFFLQGLKKGVEEAAQYGVILAVEIMDDPFMNSIQKFLEIKEQIPSPFLHVYPDLGNLSAWPENNPAVELEKGIAEIAAIHLKDTFAVTDTFEGKFREVTFGEGCVDFTGLLKTLKRLNYSGPFLIEMWNETDLNFQEKIQAAQQYLYPKLAEVGYY", "soluble on expression in E. coli": "not soluble"}
{"sequence": "SNAMNQTLLSDFGTPVERVERAIDALRNGRGVMVLDDESRENEGDMVFAAEAMTLEQMALTIRHGSGIVCLCITDERRQQLDLPMMVTHNSSQFQTAFTVTIEAAEGVTTGVSAADRLTTIRKAIADNAKPADLNRPGHVFPLRGQPGGVLSRRGHTEASIDLATLAGYKPAGVLCELTNDDGSMAHAPEVIAFAKLHDMPVVTIDDLAAYLQSRAKKAS", "soluble on expression in E. coli": "soluble"}
